Measured values published in patent US9023343B2, “Phosphorylation-inhibiting agent or dephosphorylating agent for PTEN” (Miyazaki Prefecture, priority 2009, dated 2015).

Assays:
NDRG2 = target: T1, NDRG2 (Homo sapiens, UniProt Q9UN36); conditions: read-out: IC50 for enzymatic activity of NDRG2; concentration of NDRG2 protein 25 ng/ul
T1 sequence (Q9UN36 1-357 isoform Q9UN36-2): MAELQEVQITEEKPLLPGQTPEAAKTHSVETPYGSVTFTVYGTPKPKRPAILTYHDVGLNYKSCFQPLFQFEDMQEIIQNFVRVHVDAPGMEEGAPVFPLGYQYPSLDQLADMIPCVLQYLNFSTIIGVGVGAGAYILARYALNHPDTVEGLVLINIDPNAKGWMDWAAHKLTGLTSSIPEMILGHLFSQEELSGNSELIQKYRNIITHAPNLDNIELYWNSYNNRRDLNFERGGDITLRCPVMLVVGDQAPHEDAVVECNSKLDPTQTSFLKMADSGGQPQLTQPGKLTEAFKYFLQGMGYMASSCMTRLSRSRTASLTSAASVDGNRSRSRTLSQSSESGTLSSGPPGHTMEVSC
Procedure: The GST-NDRG2 protein (10 ng to 250 ng) was added to a reaction solution (pH 5.0) consisting of 100 mM sodium acetate, 0.8 mM DTT, and 10 mM pNPP, and the mixture was allowed to react at 30° C. for 10 minutes. After addition of 500 μl of 5 M NaGH, the reaction was stopped and OD 410 nm of the absorption wavelength for pNP (p-Nitrophenol) was measured. A standard curve was prepared at a concentration of 0.2 to 1.6 nmol of pNP, and an enzyme activity was determined by converting the absorbance into the concentration of pNP.

PTEN = target: T2, PTEN (Homo sapiens, UniProt P60484); test: In vitro dephosphorylation of FLAG-PTEN purified from ATL cell line Su9T-01, Western blot; assay type: biochemical; conditions: 10 ng/ml FLAG-PTEN, 30° C., 30 minutes; phosphorylation-specific anti-PTEN antibodies
T2 construct: made in house; host or cells: ATL cell line Su9T-01, transfected with PTEN/pCMV26; purified on anti-FLAG M2 gel
T2 sequence (P60484 whole entry): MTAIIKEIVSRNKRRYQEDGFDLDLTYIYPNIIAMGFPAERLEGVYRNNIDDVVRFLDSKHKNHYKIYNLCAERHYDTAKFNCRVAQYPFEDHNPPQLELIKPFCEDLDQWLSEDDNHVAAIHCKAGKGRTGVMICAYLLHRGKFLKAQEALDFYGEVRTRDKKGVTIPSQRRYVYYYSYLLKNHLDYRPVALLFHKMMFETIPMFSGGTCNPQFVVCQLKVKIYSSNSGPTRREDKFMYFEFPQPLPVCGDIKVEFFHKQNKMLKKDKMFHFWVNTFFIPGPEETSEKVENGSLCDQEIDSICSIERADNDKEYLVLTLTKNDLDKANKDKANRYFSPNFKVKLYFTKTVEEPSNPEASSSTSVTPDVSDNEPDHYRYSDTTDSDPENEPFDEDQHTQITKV
Procedure: ATL cell line Su9T-01 of 1×10^7 cells were transfected with 20 μg of PTEN/pCMV26 expression vector by electroporation. On day 2 after the transfection, the cells were collected and 500 μl of RIPA buffer solution was added to prepare a cell extract solution. […] The reaction solution was washed with PBS buffer solution, and eluted with 3×FLAG peptide (100 μg/ml).
A reaction solution composed of 25 ng of GST or GST-NDRG2 or one unit of bacterial alkaline phosphatase (BAP) (TAKARA) was reacted with a reaction solution consisting of 20 mM magnesium acetate, 300 μg/mL BSA, 30 μM EDTA, 0.03% β-mercaptoethanol, and 10 ng/ml FLAG-PTEN at 30° C. for 30 minutes. Phosphorylation state of PTEN was analyzed by the Western blot method using anti-PTEN antibodies specific to each phosphorylation.

[1] = pNPP (p-nitrophenyl phosphate) assay of phosphatase activity; assay type: biochemical; conditions: pH 5.0, 10 mM pNPP, 30° C., 10 minutes
Procedure: The GST-NDRG2 protein (10 ng to 250 ng) was added to a reaction solution (pH 5.0) consisting of 100 mM sodium acetate, 0.8 mM DTT, and 10 mM pNPP, and the mixture was allowed to react at 30° C. for 10 minutes. After addition of 500 μl of 5 M […], the reaction was stopped and OD 410 nm of the absorption wavelength for pNP (p-Nitrophenol) was measured. A standard curve was prepared at a concentration of 0.2 to 1.6 nmol of pNP, and an enzyme activity was determined by converting the absorbance into the concentration of pNP.

| Molecule | IC50 (NDRG2) [nM] | dephosphorylation of PTEN (PTEN) | production of pNP (phosphatase activity) [1] |
| --- | --- | --- | --- |
| [F-].[Na+] [sodium fluoride] | 383 | – | – |
| GST: Glutathione S-Transferase protein, negative control | – | not recognized | not observed |
| BAP: bacterial alkaline phosphatase (TAKARA), positive control | – | dephosphorylation effects were recognized | – |
